In patent US20130326736A1 one finds wus-like (%) T1 shoot phenotypes, overexpression in clv2-1 and wus-like (%) T1 shoot phenotypes, overexpression in crn-1 data, which are given here for three substances.

The target of experiment [1] is CLAVATA2 (CLV2; At1g65380) (Arabidopsis) (UniProt O80809). Nature of the experiment: cell-based or functional assay.
Experiment [2] has as its target CORYNE (CRN; At5g13290) (Arabidopsis) (UniProt Q9LYU7). Nature of the experiment: cell-based or functional assay.
Sequence of UniProt Q9LYU7 (Q9LYU7 34-401): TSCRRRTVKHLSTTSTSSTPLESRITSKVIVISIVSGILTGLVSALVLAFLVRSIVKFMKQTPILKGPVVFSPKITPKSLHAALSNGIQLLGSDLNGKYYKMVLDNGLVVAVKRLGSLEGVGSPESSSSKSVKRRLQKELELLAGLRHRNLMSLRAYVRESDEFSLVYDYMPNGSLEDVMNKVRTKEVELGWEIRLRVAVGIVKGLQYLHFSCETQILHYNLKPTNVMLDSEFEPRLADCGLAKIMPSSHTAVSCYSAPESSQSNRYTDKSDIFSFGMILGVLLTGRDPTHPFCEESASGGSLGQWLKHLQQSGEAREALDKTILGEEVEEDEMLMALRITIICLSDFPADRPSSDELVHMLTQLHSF

Sequence of UniProt O80809 (O80809 26-720): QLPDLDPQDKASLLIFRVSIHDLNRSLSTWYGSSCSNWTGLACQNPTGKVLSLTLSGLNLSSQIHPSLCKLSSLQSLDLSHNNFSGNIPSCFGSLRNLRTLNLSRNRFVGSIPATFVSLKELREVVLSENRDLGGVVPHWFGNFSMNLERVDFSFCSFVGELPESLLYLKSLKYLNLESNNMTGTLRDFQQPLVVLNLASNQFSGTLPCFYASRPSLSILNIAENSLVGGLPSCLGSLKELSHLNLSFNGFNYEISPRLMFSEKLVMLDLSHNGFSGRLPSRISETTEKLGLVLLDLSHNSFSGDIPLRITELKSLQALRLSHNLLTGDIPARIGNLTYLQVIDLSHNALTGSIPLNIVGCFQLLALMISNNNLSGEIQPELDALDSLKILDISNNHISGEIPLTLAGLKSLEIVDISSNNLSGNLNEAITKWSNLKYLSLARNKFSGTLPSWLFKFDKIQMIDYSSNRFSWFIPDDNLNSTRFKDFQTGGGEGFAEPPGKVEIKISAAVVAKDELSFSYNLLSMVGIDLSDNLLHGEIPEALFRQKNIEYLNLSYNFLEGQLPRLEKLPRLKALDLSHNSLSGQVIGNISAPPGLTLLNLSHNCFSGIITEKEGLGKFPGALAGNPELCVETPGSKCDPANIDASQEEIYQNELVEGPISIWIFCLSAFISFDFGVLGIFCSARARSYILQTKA

With “HsCLE1 (beet cyst nematode CLE protein, overexpressed in Arabidopsis) (ligand)”, the wus-like (%) T1 shoot phenotypes, overexpression in clv2-1 in experiment [1] stood at 0%. Moreover, in experiment [2], the wus-like (%) T1 shoot phenotypes, overexpression in crn-1 turned out to be 0%.

Turning to “HgCLE2ΔSP (soybean cyst nematode CLE protein, overexpressed in Arabidopsis) (ligand)”, in experiment [1], the wus-like (%) T1 shoot phenotypes, overexpression in clv2-1 is 0%. This substance also showed a wus-like (%) T1 shoot phenotypes, overexpression in crn-1 in experiment [2] of 0%.

In turn, “HsCLE2 (beet cyst nematode CLE protein, overexpressed in Arabidopsis) (ligand)” yielded a wus-like (%) T1 shoot phenotypes, overexpression in clv2-1 in experiment [1] of 0%. The wus-like (%) T1 shoot phenotypes, overexpression in crn-1 in experiment [2] amounted to 0%.
